Among the data in PMC9191654 are stoichiometry N values, retold here.

For assay [1], the target named is anti-OX40 antibody 1A7 with the Fc hexamer variant E345R/E430G/S440Y (RGY). Nature of the assay: SEC.
In assay [2] the target is anti-OX40 antibody 1A7 with the κ3-11(49–61) light chain graft and the Fc hexamer variant E345R/E430G/S440Y (RGY). In words: SEC. (In general: In gel filtration, larger molecules generally elute earlier.)

B1: anti-OX40 antibody 1A7 with the Fc hexamer variant E345R/E430G/S440Y (RGY) (antibody, V domains shown)
VH: EVQLVQSGAEVKKPGASVKVSCKASGYTFTDSYMSWVRQAPGQGLEWIGDMYPDNGDSSYNQKFRERVTITRDTSTSTAYLELSSLRSEDTAVYYCVLAPRWYFSVWGQGTLVTVSS
VL: DIQMTQSPSSLSASVGDRVTITCRASQDISNYLNWYQQKPGKAPKLLIYYTSRLRSGVPSRFSGSGSGTDFTLTISSLQPEDFATYYCQQGHTLPPTFGQGTKVEIK
Turning to B1, the stoichiometry N (in general, a count of units in the complex or per binding partner) in assay [1] was found to be 6.

B2: anti-OX40 antibody 1A7 with the κ3-11(49–61) light chain graft and the Fc hexamer variant E345R/E430G/S440Y (RGY) (antibody, V domains shown)
VH: EVQLVQSGAEVKKPGASVKVSCKASGYTFTDSYMSWVRQAPGQGLEWIGDMYPDNGDSSYNQKFRERVTITRDTSTSTAYLELSSLRSEDTAVYYCVLAPRWYFSVWGQGTLVTVSS
VL: DIQMTQSPSSLSASVGDRVTITCRASQDISNYLNWYQQKPGKAPKLLIYDASNRATGIPARFSGSGSGTDFTLTISSLQPEDFATYYCQQGHTLPPTFGQGTKVEIK
For the molecule B2, the stoichiometry N in assay [2] was 6.
